116 sequences from the supplement of paper PMC10724198 can be followed below.

± gives the standard deviation of the averaged measurements.
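Further: PSI is a weighted mean of sequencing reads over stability bins, variants kept only with over 10 reads, mCherry proximal and sfGFP distal, peptide attached via GGGS linker.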

For this data set, the system named is Saccharomyces cerevisiae. Nature of the data set: protein stability index of tFT-peptide fusion (C-terminal peptide) (PSI (0-1 scale)); higher = more stable (slower turnover). The conditions noted are these: genetic background: wild type; temperature: 30 C.
SPSLSFPGIPLF: the protein stability index is 0.673 ± 0.052.
As for SPSPALPPRIRF, the protein stability index was 0.818 ± 0.15.
In the case of SPSPHSPHPTPH it was 0.738 ± 0.085.
As to SPSPPPRRYLPL, the protein stability index worked out at 0.757 ± 0.073.
In the case of SPSPQPLRRAHP it was 0.698 ± 0.043.
As for SPSPSPPPAISI, the protein stability index turned out to be 0.657 ± 0.015.
In the case of SPSSRTTNTHPA it was 0.694 ± 0.11; in that of SPTAHAPALPSP, 0.692 ± 0.049; in that of SPTPPTAPPSPL, 0.699 ± 0.015.
Next, SPTRNLPPFPPP: 0.723 ± 0.054.
Next, SPVPPSPAPLLI: 0.673 ± 0.018; SPVPRIRPPPLL: 0.699 ± 0.053; SPVSPTSNSPAC: 0.649 ± 0.085.
SQCNRGSWRSPS registered a protein stability index of 0.645 ± 0.0073.
In the case of SQMCHREESVTV it was 0.712 ± 0.004; in that of SQPRRELGRPRG, 0.662 ± 0.022.
Next, SQSEGTLELINK: 0.679 ± 0.043; SQTKRINSEKNN: 0.654 ± 0.039; SRALNAPAPFLP: 0.747 ± 0.044.
In the case of SRELPPPLLRSS it was 0.692 ± 0.072; in that of SRFAGVGGGGAR, 0.667 ± 0.0071; in that of SRFISTLPGLLA, 0.708 ± 0.035.
For the sequence SRFRSGVAALPS, the protein stability index was found to be 0.644 ± 0.033.
Take SRFWLCGKCLWH: the protein stability index was 0.7051 ± 0.0045.
In turn, SRGIRPYYRLLL showed a protein stability index of 0.596 ± 0.0094.
SRGSMLRRPLFV showed a protein stability index of 0.571.
Next, SRGTTLDREQQR: 0.687 ± 0.1; SRHLALPPPRSF: 0.702 ± 0.045.
Next, SRIFLFPTPTLF: 0.651 ± 0.096; SRISQSMRFPIK: 0.691 ± 0.027; SRKLRKSLFKKS: 0.689 ± 0.045.
In the case of SRLFEFFISRNV it was 0.706 ± 0.013; in that of SRLFSFLYDVTA, 0.665 ± 0.036.
Consider SRLPGLELCNRI, for which the protein stability index stood at 0.675 ± 0.041.
In the case of SRLPIVGYLTLL it was 0.56 ± 0.036; in that of SRPIPSPPPRPV, 0.6473 ± 0.002; in that of SRPLSSPSPPPS, 0.723 ± 0.043.
In the case of SRPQTTGPLPPL it was 0.684 ± 0.05; in that of SRPTAPKRQTRY, 0.6886 ± 0.0046; in that of SRRMFCACYVLS, 0.585 ± 0.031.
In the case of SRRSKDRAGVWV it was 0.642 ± 0.0079.
Turning to SRRVAPEPSIPP, the protein stability index is 0.683 ± 0.018.
In the case of SRSGFWCYLLFL it was 0.553 ± 0.039.
As for SRSPPPPALPPL, the protein stability index was found to be 0.702 ± 0.05.
Next, SRSRCGSRAVAF: 0.694 ± 0.029; SRTLPPPSPGLH: 0.714 ± 0.013.
For the sequence SRTWGDVVSSGT, the protein stability index worked out at 0.715 ± 0.0099.
Next, SRVCPLLAPSLL: 0.671 ± 0.067; SRVKMKGTIRER: 0.701 ± 0.021.
SRVYRSCKNVKR showed a protein stability index of 0.7383 ± 0.0069.
For the sequence SRWDPLYVPWRM, the protein stability index stood at 0.696 ± 0.014.
Next, SRYYMDRGTLLE: 0.625 ± 0.018; SSASPVPVLPLT: 0.7 ± 0.018.
On to SSCAWGGGLEVG, for which the protein stability index was determined as 0.683 ± 0.053.
In the case of SSCGTITYLTPY it was 0.745 ± 0.015; in that of SSCSDLTKRLQQ, 0.669 ± 0.054; in that of SSDSVPIVVGVV, 0.66 ± 0.056.
Next, SSEGTRTLIPPD: 0.7 ± 0.011; SSFLSLYSIPLP: 0.734 ± 0.044.
In the case of SSGLMGFLFPMQ it was 0.721 ± 0.017.
SSHSFFLFRISL displayed a protein stability index of 0.608 ± 0.061.
Next, SSKLFVVLPVSR: 0.599 ± 0.028; SSLPASPAPPHL: 0.702 ± 0.066.
The sequence SSLPPSDQPPSP yielded a protein stability index of 0.733 ± 0.071.
In the case of SSLWVGFLGCVG it was 0.646 ± 0.008; in that of SSNLVDTCSPIG, 0.778 ± 0.081.
In the case of SSPARASLTRPA it was 0.674 ± 0.038; in that of SSPESPPTPRSL, 0.678 ± 0.064.
Next, SSPHQVLTTRAP: 0.705 ± 0.13; SSPIIAGFPQQK: 0.676 ± 0.016.
On to SSPLPPPPFAPL, for which the protein stability index was 0.702 ± 0.022.
In the case of SSPPPPPRPAPT it was 0.681 ± 0.15; in that of SSPPPRSLPSPP, 0.714 ± 0.046; in that of SSPPWPILHSPP, 0.6952 ± 0.0014.
In the case of SSPQASILIRDF it was 0.778 ± 0.1.
Next, SSPSPASSPPPP: 0.677 ± 0.057; SSPVPLPPNPPA: 0.696 ± 0.038.
SSRALFLPSFLP displayed a protein stability index of 0.731 ± 0.04.
Next, SSSAPSSVPPLG: 0.734 ± 0.016; SSSCRCSRVIGR: 0.589 ± 0.064.
Turning to SSSLHPRPSPPL, the protein stability index was 0.692 ± 0.043.
SSSLPPPPHAFP returned a protein stability index of 0.672 ± 0.036.
In turn, SSSRLLALSSLH yielded a protein stability index of 0.694 ± 0.053.
Next, SSSSSSALSGFE: 0.704 ± 0.051; SSSVPFRRYTHD: 0.711 ± 0.017.
In the case of SSSVSARAVSLP, the protein stability index turned out to be 0.6958 ± 0.0033.
In the case of SSTERLELERMS it was 0.705 ± 0.021; in that of SSYFCESWMFDL, 0.756 ± 0.023; in that of SSYHPPPSCLLP, 0.74596 ± 0.00061.
In the case of STAPQDPARPSE it was 0.707 ± 0.028; in that of STCFPSIVRLGP, 0.612 ± 0.05; in that of STDNNLISEPKT, 0.731 ± 0.097.
Next, STDQFFLFFCVG: 0.735 ± 0.2.
The sequence STFYSALRVGTR gave a protein stability index of 0.668 ± 0.019.
As for STGAVREFRFFA, the protein stability index turned out to be 0.643 ± 0.053.
Regarding STGLDPAAGAHL, the protein stability index was 0.657 ± 0.06.
Next, STGTASAHRVQI: 0.66 ± 0.011.
In turn, STHSRLCATVPP gave a protein stability index of 0.591 ± 0.027.
As to STPLRNLEITIA, the protein stability index was determined as 0.679 ± 0.15.
Next, STPPPPALPEYQ: 0.698 ± 0.023; STPSPQPYIAPT: 0.735 ± 0.06; STSACPTPRTCS: 0.6192 ± 0.001.
Next, STSHSFGVLIAS: 0.662 ± 0.0094; STSIRHGLHSVE: 0.673 ± 0.05; STVRFGAPDYVH: 0.6774 ± 0.0026.
Next, SVAPRLFSPSHP: 0.6548 ± 0.0055; SVDMYTNNYKIH: 0.549 ± 0.038; SVESEWHLLLTP: 0.744 ± 0.013.
For SVFECKYNTLGR, the protein stability index was 0.671 ± 0.017.
Next, SVFPSAVCSLGC: 0.6895 ± 0.005.
In the case of SVGGSLFLGRRG it was 0.68 ± 0.072.
Next, SVLPSLRPGSGL: 0.707 ± 0.016; SVLPSVAGIKSG: 0.593 ± 0.046.
On to SVLTSYFFYLPP, for which the protein stability index turned out to be 0.6869 ± 0.0046.
Next, SVPHRLLSVPPV: 0.6816 ± 0.0014; SVPPRPLALSLL: 0.76 ± 0.026.
